Columns and labels:
Settings in all cases: both partners purified
[1] = biological target: T1, Recombinant purified α-isoform of mammalian PP1 (residues 1–330), tag cleaved (mammalian, UniProt P62136 1-330); assay: ITC; CRI (140 µM) titrated into PP1 (18 µM), iTC200, 25 °C; 20 mM Tris-HCl pH 7.5, 200 mM NaCl, 1 mM MnCl2, 5 mM β-mercaptoethanol, 10% glycerol
T1 construct: Protein phosphatase 1 catalytic subunit, α-isoform, 'mammalian', residues 1–330; synthetic gene (GenScript); Printed mass 37.5 kDa; Subcloned into pMAL-c2G under the Ptac promoter; also called PP1α; source: E. coli BL21 AI (RIL), purified (TALON, TEV cleavage, heparin Sepharose); not shown: His6, N-terminal, cleaved

[2] = biological target: T1, Recombinant purified α-isoform of …; assay: SEC; analytical gel filtration on Superdex 75 in 20 mM Tris-HCl pH 7.5, 200 mM NaCl, 2 mM DTT, 1 mM MnCl2; PP1/CRI at molar ratios 1:1, 1:3 and 2:1
[3] = biological target: T1, Recombinant purified α-isoform of …; assay: SPR; Biacore 3000; PP1 covalently coupled to a CM5 chip; Rif1 CRI, mutants and peptide injected at 20 µl/min in 10 mM Tris-HCl pH 7.5, 250 mM NaCl, 1 mM DTT, 2 mM MnCl2, 0.005% Tween 20; 1:1 binding model

T1 sequence (P62136 whole entry, the tested form may be a part, canonical isoform): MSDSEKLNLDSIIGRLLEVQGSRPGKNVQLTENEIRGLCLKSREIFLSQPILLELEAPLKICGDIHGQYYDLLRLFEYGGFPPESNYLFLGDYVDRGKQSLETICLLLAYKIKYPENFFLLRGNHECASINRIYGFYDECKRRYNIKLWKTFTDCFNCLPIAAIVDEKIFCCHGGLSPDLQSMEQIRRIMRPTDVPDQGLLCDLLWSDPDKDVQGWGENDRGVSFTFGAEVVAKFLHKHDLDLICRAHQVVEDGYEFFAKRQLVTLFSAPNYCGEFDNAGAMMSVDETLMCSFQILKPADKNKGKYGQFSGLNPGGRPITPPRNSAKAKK

B1: Rif1 CRI (residues 2093–2190), purified, wild type (domain or fragment, mouse, UniProt Q6PR54 2093-2190, looked up)
chain: TSPEKLELDSFGSVNESPSGMQQARCVWSPLASPSTSILKRGLKRSQEDEISPVNKIRRVSFADPIYQAGLADDIDRRCSVVRSHSSNSSPIIKSVKT
notes: Rif1, mouse, CRI, residues 2093–2190; For NMR the same fragment was 15N or 15N/13C labelled; Printed mass 10.8 kDa; also called CR1; 15N-labeled CRI; source: recombinant, purified (TALON beads, tag cleaved by TEV protease)
B1 was tested, and the Kd [1] was 22.8 ± 4.2 nM, the dH [1] was -23.8 ± 0.129 kcal/mol and the “stoichiometry N” value [2] was 1. It also gave a Kd [3] of 9.7 ± 1.7 nM.

From article PMC5437018, “Mouse Rif1 is a regulatory subunit of protein phosphatase 1 (PP1)” (Scientific Reports, 2017)
